# From paper PMC3718736
# Target: VHH2-Fc antibody (VHH C2 fused to the Fc of human IgG1) (llama (Lama glama))
# Test: SPR; Biacore 3000; […] (10 mM acetate pH 3.5); […]
# Chain of VHH2-Fc antibody (VHH C2 fused to the Fc of human IgG1) (llama (Lama glama)) (heavy, as listed by the source): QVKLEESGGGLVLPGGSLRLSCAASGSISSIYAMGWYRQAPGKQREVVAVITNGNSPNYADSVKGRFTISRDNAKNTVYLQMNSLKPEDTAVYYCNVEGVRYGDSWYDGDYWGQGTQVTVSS
substance,measurement,value
α-cobratoxin (from UniProt P01391 1-71) (natural protein),koff,5e-05 s⁻¹
